Assay results from IntAct's records for PubMed 25910212.

B1: Myelin proteolipid protein (Homo sapiens), P60201-2 (parent)
chain: MGLLECCARCLVGAPFASLVATGLCFFGVALFCGCGHEALTGTEKLIETYFSKNYQDYEYLINVIHAFQYVIYGTASFFFLYGALLLAEGFYTTGAVRQIFGDYKTTICGKGLSATFVGITYALTVVWLLVFACSAVPVYIYFNTWTTCQSIAFPSKTSASIGSLCADARMYGVLPWNAFPGKVCGSNLLSICKTAEFQMTFHLFIAAFVGAAATLVSLLTFMIAATYNFAVLKLMGRGTKF
partner: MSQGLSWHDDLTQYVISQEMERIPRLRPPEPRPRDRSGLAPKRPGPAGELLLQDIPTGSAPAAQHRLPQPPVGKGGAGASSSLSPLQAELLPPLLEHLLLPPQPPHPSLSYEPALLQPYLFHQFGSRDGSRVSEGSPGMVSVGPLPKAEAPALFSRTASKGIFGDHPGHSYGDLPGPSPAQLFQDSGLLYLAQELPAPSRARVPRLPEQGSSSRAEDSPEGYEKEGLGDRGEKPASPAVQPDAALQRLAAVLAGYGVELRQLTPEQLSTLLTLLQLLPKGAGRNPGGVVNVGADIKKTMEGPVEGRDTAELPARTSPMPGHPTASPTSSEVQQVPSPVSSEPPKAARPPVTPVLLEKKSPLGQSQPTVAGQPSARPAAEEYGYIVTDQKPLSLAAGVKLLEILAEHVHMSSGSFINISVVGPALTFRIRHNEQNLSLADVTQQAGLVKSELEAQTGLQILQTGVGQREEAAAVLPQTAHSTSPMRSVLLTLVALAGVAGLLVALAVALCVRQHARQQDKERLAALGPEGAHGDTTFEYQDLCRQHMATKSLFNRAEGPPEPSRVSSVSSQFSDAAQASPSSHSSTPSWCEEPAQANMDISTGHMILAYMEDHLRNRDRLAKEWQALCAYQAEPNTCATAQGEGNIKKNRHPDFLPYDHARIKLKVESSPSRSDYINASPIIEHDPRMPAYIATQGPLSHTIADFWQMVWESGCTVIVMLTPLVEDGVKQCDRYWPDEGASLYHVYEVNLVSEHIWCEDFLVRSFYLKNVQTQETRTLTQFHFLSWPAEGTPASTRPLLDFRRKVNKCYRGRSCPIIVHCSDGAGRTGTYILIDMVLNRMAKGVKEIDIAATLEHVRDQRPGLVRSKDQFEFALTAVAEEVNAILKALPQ
B2: von Hippel-Lindau disease tumor suppressor (Homo sapiens), P40337-2 (parent)
chain: MPRRAENWDEAEVGAEEAGVEEYGPEEDGGEESGAEESGPEESGPEELGAEEEMEAGRPRPVLRSVNSREPSQVIFCNRSPRVVLPVWLNFDGEPQPYPTLPPGTGRRIHSYRVYTLKERCLQVVRSLVKPENYRRLDIVRSLYEDLEDHPNVQKDLERLTQERIAHQRMGD
B3: Beta-crystallin A4 (Homo sapiens), P53673 (parent)
chain: MTLQCTKSAGPWKMVVWDEDGFQGRRHEFTAECPSVLELGFETVRSLKVLSGAWVGFEHAGFQGQQYILERGEYPSWDAWGGNTAYPAERLTSFRPAACANHRDSRLTIFEQENFLGKKGELSDDYPSLQAMGWEGNEVGSFHVHSGAWVCSQFPGYRGFQYVLECDHHSGDYKHFREWGSHAPTFQVQSIRRIQQ
partner: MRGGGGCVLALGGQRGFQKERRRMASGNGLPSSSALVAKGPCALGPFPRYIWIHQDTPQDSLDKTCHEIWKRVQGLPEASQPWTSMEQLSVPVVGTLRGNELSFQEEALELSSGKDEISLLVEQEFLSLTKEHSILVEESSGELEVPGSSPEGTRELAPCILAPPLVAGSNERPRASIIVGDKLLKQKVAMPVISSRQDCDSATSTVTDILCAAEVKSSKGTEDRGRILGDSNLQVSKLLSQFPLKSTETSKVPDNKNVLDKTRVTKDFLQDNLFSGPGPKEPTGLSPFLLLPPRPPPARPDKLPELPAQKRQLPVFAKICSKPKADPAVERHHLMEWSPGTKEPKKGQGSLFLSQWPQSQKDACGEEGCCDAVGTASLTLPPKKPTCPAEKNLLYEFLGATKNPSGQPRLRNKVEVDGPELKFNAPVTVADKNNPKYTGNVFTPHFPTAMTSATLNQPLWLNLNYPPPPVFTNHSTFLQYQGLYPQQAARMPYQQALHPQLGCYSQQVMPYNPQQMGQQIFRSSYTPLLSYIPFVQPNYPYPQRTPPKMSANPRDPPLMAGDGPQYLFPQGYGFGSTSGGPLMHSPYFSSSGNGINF
B4: Interferon-inducible double-stranded RNA-dependent protein kinase activator A (Homo sapiens), O75569 (parent)
chain: MSQSRHRAEAPPLEREDSGTFSLGKMITAKPGKTPIQVLHEYGMKTKNIPVYECERSDVQIHVPTFTFRVTVGDITCTGEGTSKKLAKHRAAEAAINILKANASICFAVPDPLMPDPSKQPKNQLNPIGSLQELAIHHGWRLPEYTLSQEGGPAHKREYTTICRLESFMETGKGASKKQAKRNAAEKFLAKFSNISPENHISLTNVVGHSLGCTWHSLRNSPGEKINLLKRSLLSIPNTDYIQLLSEIAKEQGFNITYLDIDELSANGQYQCLAELSTSPITVCHGSGISCGNAQSDAAHNALQYLKIIAERK
partner: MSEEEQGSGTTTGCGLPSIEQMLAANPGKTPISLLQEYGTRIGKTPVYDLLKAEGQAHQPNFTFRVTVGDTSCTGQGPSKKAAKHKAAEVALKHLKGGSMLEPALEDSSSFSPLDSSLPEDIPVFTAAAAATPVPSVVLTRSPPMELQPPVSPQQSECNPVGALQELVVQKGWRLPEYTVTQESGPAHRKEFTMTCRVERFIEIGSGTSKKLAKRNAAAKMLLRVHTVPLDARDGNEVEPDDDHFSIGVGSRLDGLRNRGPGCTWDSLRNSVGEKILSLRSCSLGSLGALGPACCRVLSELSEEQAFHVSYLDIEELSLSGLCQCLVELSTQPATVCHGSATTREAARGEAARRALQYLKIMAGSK
B5: Phospholamban (Homo sapiens), P26678 (parent)
chain: MEKVQYLTRSAIRRASTIEMPQQARQKLQNLFINFCLILICLLLICIIVMLL
B6: B-cell antigen receptor complex-associated protein beta chain (Homo sapiens), P40259 (parent)
chain: MARLALSPVPSHWMVALLLLLSAEPVPAARSEDRYRNPKGSACSRIWQSPRFIARKRGFTVKMHCYMNSASGNVSWLWKQEMDENPQQLKLEKGRMEESQNESLATLTIQGIRFEDNGIYFCQQKCNNTSEVYQGCGTELRVMGFSTLAQLKQRNTLKDGIIMIQTLLIILFIIVPIFLLLDKDDSKAGMEEDHTYEGLDIDQTATYEDIVTLRTGEVKWSVGEHPGQE
B7: DNA mismatch repair protein Mlh1 (Homo sapiens), P40692 (parent)
chain: MSFVAGVIRRLDETVVNRIAAGEVIQRPANAIKEMIENCLDAKSTSIQVIVKEGGLKLIQIQDNGTGIRKEDLDIVCERFTTSKLQSFEDLASISTYGFRGEALASISHVAHVTITTKTADGKCAYRASYSDGKLKAPPKPCAGNQGTQITVEDLFYNIATRRKALKNPSEEYGKILEVVGRYSVHNAGISFSVKKQGETVADVRTLPNASTVDNIRSIFGNAVSRELIEIGCEDKTLAFKMNGYISNANYSVKKCIFLLFINHRLVESTSLRKAIETVYAAYLPKNTHPFLYLSLEISPQNVDVNVHPTKHEVHFLHEESILERVQQHIESKLLGSNSSRMYFTQTLLPGLAGPSGEMVKSTTSLTSSSTSGSSDKVYAHQMVRTDSREQKLDAFLQPLSKPLSSQPQAIVTEDKTDISSGRARQQDEEMLELPAPAEVAAKNQSLEGDTTKGTSEMSEKRGPTSSNPRKRHREDSDVEMVEDDSRKEMTAACTPRRRIINLTSVLSLQEEINEQGHEVLREMLHNHSFVGCVNPQWALAQHQTKLYLLNTTKLSEELFYQILIYDFANFGVLRLSEPAPLFDLAMLALDSPESGWTEEDGPKEGLAEYIVEFLKKKAEMLADYFSLEIDEEGNLIGLPLLIDNYVPPLEGLPIFILRLATEVNWDEEKECFESLSKECAMFYSIRKQYISEESTLSGQQSEVPGSIPNSWKWTVEHIVYKALRSHILPPKHFTEDGNILQLANLPDLYKVFERC

Variants of: B1
Settings: with PTPRN

Variant | effect of a mutation on the interaction
P15L | disrupting interaction strength
L87P | disrupting interaction strength
W128L | disrupting interaction strength
A213E | disrupting interaction strength

Variants of: B2
Settings: with mdfi_human MDFI

Variant | effect of a mutation on the interaction
S38P | disrupting interaction strength
S111I | disrupting interaction strength

Variants of: B3
Settings: with ca094_human C1orf94, Q6P1W5

Variant | effect of a mutation on the interaction
V36M | disrupting interaction strength
F94S | disrupting interaction strength
L69P | disrupting interaction strength

Variants of: B4
Settings: with trbp2_human TARBP2, Q15633

Variant | effect of a mutation on the interaction
P222L | with no effect

Variants of: B5
Settings: with BCL2L13, Q9BXK5

Variant | effect of a mutation on the interaction
R9C | with no effect

Variants of: B5
Settings: with eda_human EDA

Variant | effect of a mutation on the interaction
R9C | with no effect

Variants of: B6
Settings: with sgta_human SGTA

Variant | effect of a mutation on the interaction
G137S | disrupting interaction strength

Variants of: B7
Settings: with AP2B1, P63010-2

Variant | effect of a mutation on the interaction
S44F | disrupting interaction strength
R472I | with no effect

Variants of: B7
Settings: with ccd33_human CCDC33, Q8N5R6

Variant | effect of a mutation on the interaction
S44F | disrupting interaction strength
R472I | with no effect

Variants of: B7
Settings: with taso2_human TASOR2, Q5VWN6

Variant | effect of a mutation on the interaction
S44F | disrupting interaction strength
R472I | with no effect
